Assay results reported in paper PMC5519724, “Direct binding to GABARAP family members is essential for HIV-1 Nef plasma membrane localization” (Scientific Reports, 2017).

Biological target: T1, recombinant HIV-1 Nef (SF2) with C-terminal hexahistidine tag (HIV-1 (SF2), UniProt P03407)
T1 construct: also called Nef protein; Nef-Sepharose
Experiment: SPR; in vitro; estimate of the affinity; who was immobilised and the conditions are not told in the text (Supplementary Fig. 5)
Settings: both partners purified

T1 sequence (P03407 whole entry): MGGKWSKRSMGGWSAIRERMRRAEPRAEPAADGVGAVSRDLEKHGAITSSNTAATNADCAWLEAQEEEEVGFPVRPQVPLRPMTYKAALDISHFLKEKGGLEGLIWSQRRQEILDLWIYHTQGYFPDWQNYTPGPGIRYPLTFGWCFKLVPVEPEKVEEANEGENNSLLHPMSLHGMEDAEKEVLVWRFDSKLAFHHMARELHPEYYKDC

B1: recombinant human GABARAP (natural protein)
chain: MKFVYKEEHPFEKRRSEGEKIRKKYPDRVPVIVEKAPKARIGDLDKKKYLVPSDLTVGQFYFLIRKRIHLRAEDALFFFVNNVIPPTSATMGQLYQEHHEEDFFLYIAYSDESVYGL
notes: also called 15N-GABARAP; [U-15N]-GABARAP
B1 gave a Kd of ~20 µM.
